# Measured values from patent publication US20250009852A1, “DEPLETING EGFR AND HER2 OVERCOMES RESISTANCE TO EGFR INHIBITORS IN COLORECTAL CANCER” (Health Research, Inc., priority 2021, published 2025).
# B1: PEPD^G278D: recombinant and enzymatically inactive mutant of human peptidase D (PEPD), with replacement of glycine 278 by aspartic acid (protein)
# chain: AAATGPSFWLGNETLKVPLALFALNRQRLCERLRKNPAVQAGSIVVLQGGEETQRYCTDTGVLFLQESFFHWAFGVTEPGCYGVIDVDTGKSTLFVPRLPASHATWMGKIHSKEHFKEKYAVDDVQYVDEIASVLTSQKPSVLLTLRGVNTDSGSVCREASFDGISKFEVNNTILHPEIVESRVFKTDMELEVLRYTNKISSEAHREVMKAVKVGMKEYGLESLFEHYCYSRGGMRHSSYTCICGSGENSAVLHYGHAGAPNDRTIQNGDMCLFDMDGEYYSVASDITCSFPRNGKFTADQKAVYEAVLLSSRAVMGAMKPGDWWPDIDRLADRIHLEELAHMGILSGSVDAMVQAHLGAVFMPHGLGHFLGIDVHDVGGYPEGVERIDEPGLRSLRTARHLQPGMVLTVEPGIYFIDHLLDEALADPARASFLNREVLQRFRGFGGVRIEEDVVVIDSGIELLTCVPRTVEEIEACMAGCDKAFTPFSGPK
# modifications: left off: small tags and cut ends
# How the values were obtained:
# EGFR = assay: Immunofluorescence staining and confocal microscopy of EGFR trafficking in SW48 cells; assay type: cell-based, human; details: serum-free medium, 25 nM, up to 6 h
# Method: SW48 cells were grown in chamber slides (4×10^4 cells/well) overnight with or without subsequent treatment with PEPD^G278D (25 nM) and/or chloroquine (25 μM) for up to 6 h. The cells were then washed with ice-cold PBS, fixed with 4% paraformaldehyde for 20 min at room temperature (RT), washed again with ice-cold PBS and blocked with 1% BSA in PBS for 1 h at RT. The cells were then incubated with an EGFR antibody, a His tag antibody for detection of PEPD^G278D, and/or a LAMP1 antibody overnight at 4° C., washed with PBS, incubated with a secondary antibody conjugated to Alexa-Fluor 488 or Alexa-Fluor 647 antibody for 1 h at RT and washed again with PBS. The cells were then examined with a BZ-X700 fluorescence microscope (Keyence) with a S PL FL ELWD ADM 40xC objective. Merged images from Z-stack were organized using the ImageJ software (NIH Image).
# PI3K = PI3K activity assay (PI3-Kinase Activity ELISA) in cell lysates; assay type: cell-based, human; details: 25 nM, 48 h
# Method: PI3K activity was measured using a PI3-Kinase Activity ELISA Kit from Echelon Biosciences, following manufacturer's instruction. Briefly, PI3K was pulled down from whole cell lysates using an antibody for PI3K/p85. Each sample was prepared from approximately 1×10^6 cells. The entire immunoprecipitate from each sample was mixed with 30 μl of KBZ reaction buffer, which was then mixed with 30 μl of 10 μM PI(4,5)P2 substrate and incubated for 2 h at 37° C. The kinase reaction was terminated by adding 90 μl of kinase stop solution to each reaction solution, and 60 μl of each mixture was transferred together with 60 μl of PIP3 detector to a well in the incubation plate. After incubation at RT for 1 h, 100 μl per sample from the incubation plate was transferred to the detection plate and incubated for 1 h at RT. The detection plate was washed with TBST, incubated with the HRP-conjugated secondary detector for 30 min, washed again with TBST, and the immobilized HRP was measured by a standard colorimetric assay, using 3,3′,5,5′-tetramethylbenzedine as a substrate and a Synergy 2 Multi-Mode Microplate Reader to record absorbance.
# EGFR and HER2 = assay: Western blotting of tumor homogenates: EGFR and HER2; assay type: in vivo, mouse; details: 24 h after the final dose
# Method: To prepare whole cell lysates, cells were washed with PBS twice, mixed with 1× cell lysis buffer from Cell Signaling Technology supplemented with 2 mM PMSF and a protease inhibitor cocktail from Roche Applied Science, placed on ice for 10 min, sonicated at 0-4° C. to enhance cell lysis using a Branson Model 450 sonifier, and finally centrifuged at 13,000 g for 10 min at 4° C., and the supernatant fraction is collected as whole cell lysate. […]
# Protein concentrations in all samples were measured using the BCA Assay Kit. […] Proteins were transferred to polyvinylidene fluoride membrane, probed with specific antibodies, and detected using either Luminata Classico (Millipore) or Luminata Cresendo (Millipore). […] The beads were washed three times with IP buffer, suspended in 2× SDS loading buffer, boiled for 5 min, and analyzed by Western blotting.
# SCID mice (C.B.17 SCID) were bred by the Laboratory Animal Shared Resource at Roswell Park Comprehensive Cancer Center. […] Subcutaneous tumor volume was measured using length ×width^2÷2. Tumor volume was measured three times each week. Orthotopic tumor growth was monitored by bioluminescence weekly. Mice were given D-luciferin (150 mg/kg) by ip and anesthetized with isoflurane, and tumor burden was measured by bioluminescence using the IVIS Spectrum In Vivo Imaging System (PerkinElmer). Drug treatment was started when significant tumor growth was detected. […]
# [1] = system: EGFR-HER3, EGFR-IGF1R and EGFR-MET heterodimers; assay: Immunoprecipitation and Western blotting of EGFR heterodimers; assay type: cell-based, human; details: 25 nM, 48 h
# Method: Protein concentrations in all samples were measured using the BCA Assay Kit. For Western blotting, each sample was mixed with 4× loading dye, heated for 5 min at 95° C., and resolved by SDS-PAGE (8-12.5%). Proteins were transferred to polyvinylidene fluoride membrane, probed with specific antibodies, and detected using either Luminata Classico (Millipore) or Luminata Cresendo (Millipore). For IP, cell lysates (0.5 mg protein/sample) were incubated with a desired antibody overnight at 4° C., followed by incubation of 500 μl sample with 30 μl G-Sepharose beads (2 mg/ml) for 1 h at RT. The beads were washed three times with IP buffer, suspended in 2× SDS loading buffer, boiled for 5 min, and analyzed by Western blotting.
molecule,measurement,setting,value
B1,EGFR internalization and lysosomal degradation,EGFR,induces EGFR internalization and lysosomal degradation
same,inhibition of PI3K activity,PI3K; HCT116 cells,74%
same,inhibition of PI3K activity,PI3K; HT29 cells,71%
same,inhibition of PI3K activity,PI3K; SW48 cells,76%
same,inhibition of PI3K activity,PI3K; SW620 cells,not in SW620 cells
same,"effect on EGFR, HER2 and ERK in tumors",EGFR and HER2; HCT116 and HT29 tumors,neither PEPD^G278D nor cetuximab had any effect
same,expression and phosphorylation of EGFR and HER2 in tumors,EGFR and HER2; SW48 tumors,decreased the expression and phosphorylation of both EGFR and HER2
same,"EGFR association with HER3, MET or IGF1R",[1],disruption of EGFR association
